In patent publication US20210268070A1, “Use of Immunomodulators to Control Infection and Stimulate Healing in Normal and Diabetic Wounds” (priority 2018, published 2021):

Key:
P. aeruginosa PA103 = test: Wound model of infection with PA103 in diabetic db/db mice; assay type: in vivo; conditions: for infection control against P. aeruginosa in diabetic wounds infected with PA103: 10^6 PA103, topical at time of surgery & infection, 24 h, FIG. 2D
Procedure: The implant model of infection in C57B mice was used for 10^6 PA103 (FIG. 2A) or 10^6 USA300 MRSA (FIG. 2C). The wound model of infection was used for 10^6 PA103 in C57BL mice (FIG. 2B) or diabetic db/db mice (FIG. 2D). Infection was carried out at the time of surgery by adding bacteria directly to the surgical sites. Immunomodulators, namely, LPS (10 ng or 100 ng), fMLP (10 ng or 100 ng), CCL3 (1 μg) were added topically at the surgical sites at the time of surgery & infection. GM-CSF (10 μg/kg), tobramycin (Tob at 3.5 mg/kg), and vancomycin (40 mg/kg) were added systemically by i.p. injection 1 h before surgical implantation and infection. Infection levels were determined 24 h following infection (N>4 animals/group; NS=not significant, * p<0.01, ** p<0.001, ***p<0.0001 One-way ANOVA).
We assessed these immunomodulators for their ability to control wound and/or implant SS's in normal (C57BL/6) or diabetic (db/db) mice. We acknowledge that diabetic individuals are not as immunocompromised as other immunocompromised patient groups. […] All immunomodulators were added locally at the surgical sites at the time of infection, except GM-CSF (10 μg/kg) which was administered systemically by i.p. injection 1 h prior to surgery per its FDA-approved route of delivery. […] CCL3 and GM-CSF are also tested using the implant model of infection. Here, we tested CCL3 and GM-CSF in the wound model of infection in C57B mice.
Implant surgery and wound surgery and surgical site infection are performed according to the following method. On the day of surgery, all mice are anesthetized by an intraperitoneal injection of a ketamine/xylazine mixture (90 mg/kg ketamine+5 mg/kg xylazine for mice). The back of the animals is shaved using an electric shave and scrubbed with alcohol swabs 3 times, a topical antiseptic solution (Hibiclens; chlorhexidine gluconate) is applied to the skin. The surgical procedures are performed with sterile instruments, sterile surgical gloves, and aseptic techniques as follows. For wound surgical procedure, a sterile biopsy punch (5-7 mm diameter) is used to punch through the full thickness of the back skin below the shoulder blades. Four 5-7 mm skin wounds are made on the back of each mouse. Wounds placed in this area cannot be reached by the animals and therefore are protected from self-licking. For implant surgery, a 4-mm long lateral skin incision is made on the upper back, and the skin is retracted. The space above the muscle is opened using blunt dissection with fine forceps, to create a rostral fascia indentation. Then, immunomodulators at indicated concentrations (in a 20 μL volume) or PBS control are injected into the fascia indentation. After a 1 min wait for fluid to be absorbed, a disc implant, (1.87 mm diameter, 0.68 mm thick (Part # VP 724F-1)), is inserted in the fascia indentation. […] For implant surgery, the fascia indentation is left open, while the skin is closed with 4-0 nylon sutures. The fascia above the back muscles in mice is too thin and fragile to allow it to be sutured closed around the implant.

[1] = test system: inflammatory responses (IL-1 β, TNFα); test: Neutrophilia and inflammatory responses in diabetic wounds; assay type: in vivo, db/db mice
Description: P. aeruginosa PA103 10^3 N=4; Significance determined as compared to PBS *<0.05, **p<0.01, ***p<0.001.
FIG. 13A illustrates that TLR4 ligand increases antimicrobial defenses in diabetic wounds against P. aeruginosa and FIG. 13B TLR4 ligand stimulates inflammatory responses in diabetic wounds. N=4; Significance determined as compared to PBS *<0.05, **p<0.01, ***p<0.001.
Tissue-Tek O.C.T. (Sakura); Lysing Matrix D (MP Biomedicals); Collagenase (Roche Diagnostics), Hematoxylin and eosin (H&E); DNase 1 (Sigma-Aldrich); Hyluronidase, Streptozotocin (Sigma-Aldrich); Trizol (Invitrogen); CD45 antibody (eBioscience, Inc); Ly6C; Ly6G; CD11b; CD3 (BioLegend); CD68; GAPDH (Sigma-Aldrich). Ly6G and CD68 (Abcam); Primer pairs for GAPDH were from Qiagen. Masson's trichrome stain (Sigma-Aldrich); Picrosirius red (Abcam); Fibronectin (Chemicon International); Insulin slow-release capsules (Linplant; LinShin, Toronto, Canada) CCL3 (R&D Systems) fMLP (Sigma-Aldrich); II-1β ELISA (R&D Systems); TNF-α ELISA (R&D Systems).

Molecule	infection control against P. aeruginosa in diabetic wounds infected with PA103 (P. aeruginosa PA103; db/db mice)	antimicrobial defenses in diabetic wounds against P. aeruginosa (P. aeruginosa PA103; compared to PBS, FIG. 13A)	inflammatory responses in diabetic wounds ([1]; compared to PBS, FIG. 13B)	infection control in diabetic wounds (P. aeruginosa PA103; P. aeruginosa PA103 10^3, compared to PBS, FIG. 11A)	infection control in diabetic animals, compared with LPS or fMLP (P. aeruginosa PA103; db/db mice, PA103, FIG. 2D)	neutrophilia in infected diabetic wounds ([1]; P. aeruginosa PA103 10^3, FIG. 12A)	persistent inflammatory responses (IL-1 β, TNFα) in infected diabetic wounds ([1]; P. aeruginosa PA103 10^3, FIG. 12B, 12C)
CSCC[C@H](NC=O)C(=O)N[C@@H](CC(C)C)C(=O)N[C@@H](Cc1ccccc1)C(=O)O [fMLP, N-Formylmethionyl-leucyl-phenylalanine]	significantly improved	–	–	–	–	–	–
lipopolysaccharide [LPS]	significantly improved	increases	stimulates	–	–	–	–
Chemokine (C-C motif) ligand 3 (protein, listed as Homo sapiens, class 1 immunomodulator) MQVSTAALAVLLCTMALCNQFSASLAADTPTACCFSYTSRQIPQNFIADYFETSSQCSKPGVIFLTKRSRQVCADPSEEWVQKYVSDLELSA	significantly improved	–	–	increases	significantly more effective	does not lead to	does not lead to
